# Patent US20200199241A1 (Chugai, published 2020)
# Where a chain is given by its changes, count along the chain named. Names may count otherwise.
# T1: FcγRIIb (human, UniProt P31994 43-217, limits assumed)
# T1 construct: also called FcgRIIb; FcγIIB
# T1 sequence: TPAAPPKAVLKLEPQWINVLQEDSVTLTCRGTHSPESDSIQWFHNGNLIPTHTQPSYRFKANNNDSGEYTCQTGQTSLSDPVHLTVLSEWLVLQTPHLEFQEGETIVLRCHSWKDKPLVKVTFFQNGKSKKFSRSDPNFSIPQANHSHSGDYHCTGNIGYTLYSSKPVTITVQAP
# T2: FcγRIIa type H (human, UniProt P12318 36-217)
# T2 construct: also called FcγRIIaH; FcγRIIH
# T2 sequence: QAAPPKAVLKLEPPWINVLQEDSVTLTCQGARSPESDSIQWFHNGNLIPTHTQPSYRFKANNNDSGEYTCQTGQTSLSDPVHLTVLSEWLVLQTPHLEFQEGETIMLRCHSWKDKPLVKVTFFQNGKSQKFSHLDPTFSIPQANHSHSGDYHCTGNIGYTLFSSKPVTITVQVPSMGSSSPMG
# T3: FcγRIIa type R (human, UniProt P12318 36-217)
# T3 construct: also called FcγRIIaR; FcgRIIaR
# T3 chain: T2 sequence with H133R
# B1: IL6R-B3/IL6R-L (antibody, human IgG1)
# heavy: not shown
# light: DIQMTQSPSSLSASVGDRVTITCRASQDISSYLNWYQQKPGKAPKLLIYYTSRLHSGVPSRFSGSGSGTDFTFTISSLQPEDIATYYCQQGNTLPYTFGQGTKVEIK
# notes: IgG1; IL6R-G1d with K439E (EU); also called parent polypeptide; copies: 2 + 2
# B2: IL6R-BP103/IL6R-L (antibody, human IgG1)
# heavy: QVQLQESGPGLVKPSETLSLTCAVSGHSISHDHAWSWVRQPPGEGLEWIGFISYSGITNYNPSLQGRVTISRDNSKNTLYLQMNSLRAEDTAVYYCARSLARTTAMDYWGEGTLVTVSSASTKGPSVFPLAPSSKSTSGGTAALGCLVKDYFPEPVTVSWNSGALTSGVHTFPAVLQSSGLYSLSSVVTVPSSSLGTQTYICNVNHKPSNTKVDKKVEPKSCDKTHTCPPCPAPELLGGDSVFLFPPKPKDTLMISRTPEVTCVVVDVVHEDPEVKFNWYVDGVEVHNAKTKPREEQYNSTYRVVSVLTVLHQDWLNGKEYKCKVSNKALPAPIEKTISKAKGQPREPQVYTLPPSRDELTKNQVSLTCLVKGFYPSDIAVEWESNGQPENNYKTTPPVLDSDGSFFLYSKLTVDKSRWQQGNVFSCSVMHEALHNHYTQESLSLSP
# light: B1 light
# notes: IgG1; Fc variant of IL6R-B3; copies: 2 + 2
# B3: IL6R-G1d/IL6R-L (antibody, human IgG1)
# heavy: not shown
# light: B1 light
# notes: IgG1 (G1d constant region) antibody to human IL-6 receptor; also called IgG1 (IL6R-G1d); copies: 2 + 2
# B4: IL6R-BP119/IL6R-L (antibody, human IgG1)
# heavy: B2 heavy with V269S, K328M
# light: B1 light
# notes: as for B2
# B5: IL6R-BF648/IL6R-L (antibody, human IgG1)
# heavy: not shown
# light: B1 light
# notes: IgG1; Fc variant of IL6R-B3; control (= 100) of the relative values; copies: 2 + 2
# B6: IL6R-BP118/IL6R-L (antibody, human IgG1)
# heavy: B2 heavy with V269S, K328S
# light: B1 light
# notes: as for B2
# B7: IL6R-BP116/IL6R-L (antibody, human IgG1)
# heavy: B2 heavy with V269S, K328T
# light: B1 light
# notes: as for B2
# Biological target: T1, FcγRIIb
# Test: SPR (Biacore), KD of IL6R-B3/IL6R-L divided by KD of the variant
# Text: Furthermore, KD(IIaR)/KD(IIb) and KD(IIaH)/KD(IIb) in the table respectively represent the value obtained by dividing the KD value of each variant for FcγRIIaR by the KD value of each variant for FcγRIIb, and the value obtained by dividing the KD value of each variant for FcγRIIaH by the KD value of each variant for FcγRIIb. KD(IIb) of the parent polypeptide/KD(IIb) of the altered polypeptide refers to the value obtained by dividing the KD value of the parent polypeptide for FcγRIIb by the KD value of each variant for FcγRIIb.
row,KD(IIb) of the parent polypeptide/KD(IIb) of altered polypeptide [fold],Binder
1,1,B1
2,2.5,B2
3,1.2,B3
4,2.7,B4
5,2.6,B5
6,2.7,B6
7,2.8,B7

# Biological target: T2, FcγRIIa type H
# Test: SPR (Biacore), FcγR over captured antibody
row,Kd [µM],Binder
1,0.77,B1
2,88,B2
3,0.67,B3
4,45,B4
5,40,B5
6,46,B6
7,54,B7

# Biological target: T4, FcγRIIIa type V (human, UniProt P08637 17-208, limits assumed)
# T4 construct: also called FcγRIIIaV; FcgRIIIaV
# T4 sequence (P08637 other isoform, or with tags, fused parts or gaps limits assumed): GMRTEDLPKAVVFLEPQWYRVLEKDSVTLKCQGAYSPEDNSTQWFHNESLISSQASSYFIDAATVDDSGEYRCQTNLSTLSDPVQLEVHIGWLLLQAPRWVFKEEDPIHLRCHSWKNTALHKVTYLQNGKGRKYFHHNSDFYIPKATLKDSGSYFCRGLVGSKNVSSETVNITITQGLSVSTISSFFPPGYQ
# Test: SPR (Biacore), FcγR over captured antibody
row,Kd [µM],Binder
1,0.33,B1
2,110,B2
3,0.35,B3
4,56,B4
5,71,B5
6,56,B6
7,72,B7

# Biological target: T1, FcγRIIb
# Test: SPR (Biacore), FcγR over captured antibody
row,Kd [nM],Binder
1,3100,B1
2,1200,B2
3,2600,B3
4,1100,B4
5,1200,B5
6,1200,B6
7,1100,B7

# Biological target: T3, FcγRIIa type R
# Test: SPR (Biacore), FcγR over captured antibody
row,Kd [µM],Binder
1,1.1,B1
2,11,B2
3,1,B3
4,9.9,B4
5,15,B5
6,15,B6
7,15,B7

# Biological target: T5, FcγRIa (human, UniProt P12314 16-292, limits assumed)
# T5 construct: also called FcgRIa; CD64
# T5 sequence (P12314 16-292 limits assumed): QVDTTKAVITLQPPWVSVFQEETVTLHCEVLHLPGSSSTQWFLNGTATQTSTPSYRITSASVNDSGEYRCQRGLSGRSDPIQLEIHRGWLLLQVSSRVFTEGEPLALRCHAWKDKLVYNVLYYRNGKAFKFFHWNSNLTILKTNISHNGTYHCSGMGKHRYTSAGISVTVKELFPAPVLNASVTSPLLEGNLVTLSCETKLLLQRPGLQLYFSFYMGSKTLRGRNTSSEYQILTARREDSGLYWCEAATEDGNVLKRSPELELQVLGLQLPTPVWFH
# Test: SPR (Biacore), FcγR over captured antibody
row,Kd [nM],Binder
1,0.42,B1
2,35,B2
3,0.32,B3
4,7,B4
5,11,B5
6,12,B6
7,2.6,B7

# Biological target: T1, FcγRIIb
# Test: SPR (Biacore); KD for FcγRIIaH divided by KD for FcγRIIb of the same antibody
# Text: Furthermore, KD(IIaR)/KD(IIb) and KD(IIaH)/KD(IIb) in the table respectively represent the value obtained by dividing the KD value of each variant for FcγRIIaR by the KD value of each variant for FcγRIIb, and the value obtained by dividing the KD value of each variant for FcγRIIaH by the KD value of each variant for FcγRIIb.
row,KD(IIaH)/KD(IIb),Binder
1,0.2,B1
2,71.5,B2
3,0.3,B3
4,39.5,B4
5,33.9,B5
6,40,B6
7,48.2,B7

# Biological target: T1, FcγRIIb
# Test: SPR (Biacore); KD for FcγRIIaR divided by KD for FcγRIIb of the same antibody
row,KD(IIaR)/KD(IIb),Binder
1,0.3,B1
2,9,B2
3,0.4,B3
4,8.7,B4
5,13,B5
6,13.2,B6
7,13.3,B7

# Biological target: T2, FcγRIIa type H
# Test: SPR (Biacore), bound amount, IL6R-BF648/IL6R-L = 100
# Experimental: (§1) According to the following method, relative binding activities were calculated for the results of analyzing interactions with the respective FcγRs.
row,relative binding activity,Binder
1,1600 % of control,B1
2,1670 % of control,B3
3,100 % of control,B5

# Biological target: T4, FcγRIIIa type V
# Test: as above
# Experimental: as §1
row,relative binding activity,Binder
1,3260 % of control,B1
2,3350 % of control,B3
3,100 % of control,B5

# Biological target: T1, FcγRIIb
# Test: as above
# Experimental: as §1
row,relative binding activity,Binder
1,58 % of control,B1
2,62 % of control,B3
3,100 % of control,B5

# Biological target: T5, FcγRIa
# Test: as above
# Experimental: as §1
row,relative binding activity,Binder
1,145 % of control,B1
2,140 % of control,B3
3,100 % of control,B5
